{"source": "patent US20200385685A1", "about": "“ROBUST DIFFERENTIATION OF HUMAN PLURIPOTENT STEM CELLS INTO ENDOTHELIAL CELLS USING TRANSCRIPTION FACTOR ETV2” (Children`s Medical Center Corporation, priority 2019, published 2020)", "key": {"h-MPCs [1]": {"system": "h-MPCs", "test": "Immunofluorescence staining for ETV2 after transfection with modRNA", "format": "cell-based, human", "details": "6 h after transfection of h-MPCs", "description": "Cells were seeded in 8-well LAB-TEK chamber slides at a density of 60,000 cell s/cm^2. After confluency, cells were fixed in 4% paraformaldehyde (PFA), permeabilized with 0.1% Triton X-100 in PBS, and then blocked for 30 min in 5% horse serum (Vector, Cat No. 5-2000). Subsequently, cells were incubated with primary antibodies for 30 min at room temperature (RT). Cells were washed 3 times with PBS and then incubated with secondary antibodies for 30 min at RT. Cells were washed 3 times with PBS and stained with 0.5 μg/mL DAPI for 5 min. Slides were mounted with DAKO fluorescence mounting medium (Agilent, Cat No. 5302380-2). Antibody information is detailed in Table 8, above."}, "h-MPCs [2]": {"system": "h-MPCs", "test": "Conversion of h-MPCs into h-iECs after transfection with modRNA(ETV2), flow cytometry", "format": "cell-based, human", "details": "for percentage of h-iECs at 96 h: above 0.5 μg of modRNA(ETV2) per 10^6 h-iPSCs", "source_text": "Antibody information is detailed in Table 8."}}, "note": "Where two headings read alike, the source gives them in different places."}
{"molecule": "Cc1cc(C)c(/C=C2\\C(=O)Nc3ccccc32)[nH]1", "note": "[SU5416]", "values": [{"measurement": "h-iECs at 96 h", "setting": "h-iPSCs; S1-S2 protocol", "value": "< 2", "unit": "%"}, {"measurement": "h-iECs at 96 h", "setting": "h-iPSCs; S1-modETV2 protocol", "value": 94, "unit": "%"}]}
{"molecule": "VEGF", "values": [{"measurement": "proportion of ETV2+ cells and subsequent conversion to CD31+ h-iECs", "setting": "h-iPSCs; S1-S2 protocol, beyond 50 ng/mL", "value": "failed to further increase"}]}
{"molecule": "modRNA(ETV2): Chemically modified mRNA encoding ETV2, transcript variant 1 (NM_014209.3), SEQ ID NO: 1, generated by TriLink BioTechnologies (nucleic acid, listed as Homo sapiens, chemically modified nucleosides) ATGGACCTGTGGAACTGGGATGAGGCATCCCCACAGGAAGTGCCTCCAGGGAACAAGCTGGCAGGGCTTGAAGGAGCCAAATTAGGCTTCTGTTTCCCTGATCTGGCACTCCAAGGGGACACGCCGACAGCGACAGCAGAGACATGCTGGAAAGGTACAAGCTCATCCCTGGCAAGCTTCCCACAGCTGGACTGGGGCTCCGCGTTACTGCACCCAGAAGTTCCATGGGGGGCGGAGCCCGACTCTCAGGCTCTTCCGTGGTCCGGGGACTGGACAGACATGGCGTGCACAGCCTGGGACTCTTGGAGCGGCGCCTCGCAGACCCTGGGCCCCGCCCCTCTCGGCCCGGGCCCCATCCCCGCCGCCGGCTCCGAAGGCGCCGCGGGCCAGAACTGCGTCCCCGTGGCGGGAGAGGCCACCTCGTGGTCGCGCGCCCAGGCCGCCGGGAGCAACACCAGCTGGGACTGTTCTGTGGGGCCCGACGGCGATACCTACTGGGGCAGTGGCCTGGGCGGGGAGCCGCGCACGGACTGTACCATTTCGTGGGGCGGGCCCGCGGGCCCGGACTGTACCACCTCCTGGAACCCGGGGCTGCATGCGGGTGGCACCACCTCTTTGAAGCGGTACCAGAGCTCAGCTCTCACCGTTTGCTCCGAACCGAGCCCGCAGTCGGACCGTGCCAGTTTGGCTCGATGCCCCAAAACTAACCACCGAGGTCCCATTCAGCTGTGGCAGTTCCTCCTGGAGCTGCTCCACGACGGGGCGCGTAGCAGCTGCATCCGTTGGACTGGCAACAGCCGCGAGTTCCAGCTGTGCGACCCCAAAGAGGTGGCTCGGCTGTGGGGCGAGCGCAAGAGAAAGCCGGGCATGAATTACGAGAAGCTGAGCCGGGGCCTTCGCTACTACTATCGCCGCGACATCGTGCGCAAGAGCGGGGGGCGAAAGTACACGTACCGCTTCGGGGGCCGCGTGCCCAGCCTAGCCTATCCGGACTGTGCGGGAGGCGGACGGGGAGCAGAGACACAATAA", "values": [{"measurement": "cells expressing ETV2", "setting": "h-MPCs [1]", "value": "> 85", "unit": "%"}, {"measurement": "cells that were endothelial (VE-Cadherin+/CD31+ cells)", "setting": "h-MPCs [2]; 48 h after transfection of h-MPCs", "value": 95, "unit": "%"}, {"measurement": "percentage of h-iECs at 96 h", "setting": "h-MPCs [2]; electroporation", "value": 95, "unit": "%"}, {"measurement": "percentage of h-iECs at 96 h", "setting": "h-MPCs [2]; lipofection", "value": 75, "unit": "%"}]}
